Binding result and Kd data for three molecules are collected here from US6623738 (University of California, dated 2003).

What is called Kd is the concentration at which binding is half-saturated. Higher therefore signals a looser complex.

Assay [1] deals with T1, mouse neuropilin-2(a5), myc-tagged, expressed in COS-7 cells (mouse, UniProt O35375 21-931).
T1 construct: also called a5 isoform of neuropilin-2; SR2(a)5
T1 sequence: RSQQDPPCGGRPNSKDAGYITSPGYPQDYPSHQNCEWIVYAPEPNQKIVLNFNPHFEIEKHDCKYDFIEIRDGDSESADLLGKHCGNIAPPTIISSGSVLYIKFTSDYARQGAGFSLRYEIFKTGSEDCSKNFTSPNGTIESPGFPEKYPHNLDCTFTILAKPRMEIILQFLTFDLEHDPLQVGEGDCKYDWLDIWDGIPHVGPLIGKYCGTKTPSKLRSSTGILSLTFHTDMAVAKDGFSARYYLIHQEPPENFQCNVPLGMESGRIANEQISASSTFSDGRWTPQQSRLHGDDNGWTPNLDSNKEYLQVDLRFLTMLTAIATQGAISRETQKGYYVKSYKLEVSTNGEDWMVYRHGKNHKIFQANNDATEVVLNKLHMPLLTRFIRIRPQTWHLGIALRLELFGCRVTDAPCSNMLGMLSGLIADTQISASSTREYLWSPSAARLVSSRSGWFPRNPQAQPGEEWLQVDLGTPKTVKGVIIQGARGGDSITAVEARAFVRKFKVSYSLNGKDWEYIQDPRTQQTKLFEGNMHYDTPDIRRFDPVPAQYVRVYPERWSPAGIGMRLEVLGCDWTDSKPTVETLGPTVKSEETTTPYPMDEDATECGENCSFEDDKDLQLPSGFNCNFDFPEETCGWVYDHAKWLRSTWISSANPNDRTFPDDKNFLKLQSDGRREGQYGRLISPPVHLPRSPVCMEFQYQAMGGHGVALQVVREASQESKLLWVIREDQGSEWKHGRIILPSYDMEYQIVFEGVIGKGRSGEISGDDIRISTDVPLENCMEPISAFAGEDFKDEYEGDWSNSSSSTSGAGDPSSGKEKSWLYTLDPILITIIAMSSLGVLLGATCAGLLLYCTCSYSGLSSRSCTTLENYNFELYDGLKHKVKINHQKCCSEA
Briefly: AP fusion binding to transfected COS cells.

In assay [2] the target is T2, mouse neuropilin-2(a0), myc-tagged, expressed in COS-7 cells (mouse, UniProt O35375 21-931).
T2 construct: also called SR2(a)0; m-npn-2
T2 sequence: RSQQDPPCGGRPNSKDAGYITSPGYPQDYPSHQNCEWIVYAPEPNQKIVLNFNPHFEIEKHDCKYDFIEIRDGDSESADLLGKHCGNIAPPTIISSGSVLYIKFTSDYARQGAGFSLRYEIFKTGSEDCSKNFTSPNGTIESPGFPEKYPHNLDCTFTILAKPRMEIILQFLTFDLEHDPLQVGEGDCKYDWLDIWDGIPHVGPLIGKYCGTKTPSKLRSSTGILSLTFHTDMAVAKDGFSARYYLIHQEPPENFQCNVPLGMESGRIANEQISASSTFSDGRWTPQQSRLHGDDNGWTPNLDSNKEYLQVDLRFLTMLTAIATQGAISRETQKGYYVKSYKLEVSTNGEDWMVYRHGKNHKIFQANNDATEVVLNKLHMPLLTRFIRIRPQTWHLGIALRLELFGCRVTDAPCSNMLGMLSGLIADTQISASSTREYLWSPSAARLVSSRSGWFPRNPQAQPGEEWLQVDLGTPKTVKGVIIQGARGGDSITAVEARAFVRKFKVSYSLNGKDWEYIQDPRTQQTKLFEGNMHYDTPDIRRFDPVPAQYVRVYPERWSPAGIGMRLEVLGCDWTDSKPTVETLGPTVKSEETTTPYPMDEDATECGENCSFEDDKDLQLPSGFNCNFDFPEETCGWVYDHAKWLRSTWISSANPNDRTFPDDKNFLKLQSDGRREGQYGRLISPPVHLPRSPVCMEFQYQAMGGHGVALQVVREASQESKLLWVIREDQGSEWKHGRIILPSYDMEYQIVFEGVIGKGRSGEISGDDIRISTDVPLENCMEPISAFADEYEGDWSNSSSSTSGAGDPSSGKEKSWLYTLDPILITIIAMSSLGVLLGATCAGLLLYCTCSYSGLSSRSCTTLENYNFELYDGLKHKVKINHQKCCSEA
Briefly: AP fusion binding to transfected COS cells.

The target in assay [3] is T3, mouse neuropilin-2(a22), myc-tagged, expressed in COS-7 cells (mouse, UniProt O35375 21-931).
T3 construct: also called SR2(a)22
T3 sequence: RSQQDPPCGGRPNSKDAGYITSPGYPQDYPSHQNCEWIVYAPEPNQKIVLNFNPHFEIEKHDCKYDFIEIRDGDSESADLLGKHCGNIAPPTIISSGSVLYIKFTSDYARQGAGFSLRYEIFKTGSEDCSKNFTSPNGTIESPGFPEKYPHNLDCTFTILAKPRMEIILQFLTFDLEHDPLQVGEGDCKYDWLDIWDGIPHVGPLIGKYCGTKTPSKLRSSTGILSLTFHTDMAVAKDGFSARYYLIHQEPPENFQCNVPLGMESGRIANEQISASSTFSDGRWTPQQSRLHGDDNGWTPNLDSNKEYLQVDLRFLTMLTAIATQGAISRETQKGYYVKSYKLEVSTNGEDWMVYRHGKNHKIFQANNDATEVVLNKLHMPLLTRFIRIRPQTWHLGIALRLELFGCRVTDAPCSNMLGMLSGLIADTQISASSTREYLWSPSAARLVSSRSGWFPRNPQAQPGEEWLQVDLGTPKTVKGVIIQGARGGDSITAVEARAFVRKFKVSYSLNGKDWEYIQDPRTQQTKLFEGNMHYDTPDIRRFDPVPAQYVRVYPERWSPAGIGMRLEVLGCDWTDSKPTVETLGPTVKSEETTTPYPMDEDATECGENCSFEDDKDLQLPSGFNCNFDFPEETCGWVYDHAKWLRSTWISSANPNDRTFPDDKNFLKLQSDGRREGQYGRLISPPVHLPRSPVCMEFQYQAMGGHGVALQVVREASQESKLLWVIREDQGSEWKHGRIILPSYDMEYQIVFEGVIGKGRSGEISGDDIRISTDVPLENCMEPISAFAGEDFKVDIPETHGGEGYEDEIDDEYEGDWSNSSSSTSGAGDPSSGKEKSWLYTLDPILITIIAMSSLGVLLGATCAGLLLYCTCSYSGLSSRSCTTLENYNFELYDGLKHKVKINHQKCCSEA
As to the kind of experiment: AP fusion binding to transfected COS cells.

In assay [4] the target is T1, mouse neuropilin-2(a5), myc-tagged, …. As to the kind of experiment: equilibrium binding of AP fusion to transfected COS cells (a5 isoform), Hill fit. On the procedure:
(§1) FIGS. 5A–5C. Equilibrium binding of semaphorin-AP fusion proteins to neuropilin-expressing cells. Transfected or control COS cells were incubated with concentrated media containing the indicated concentrations of semaphorin-AP fusion proteins. AP activity derived from bound fusion proteins was measured […] at 405 nm; specific binding was obtained after subtraction of background from control cells. Specific binding curves to cells expressing neuropilin-1 (closed circles) or […] are shown for Sema III-AP (A), Sema E-AP (B), and Sema IV-AP (C). Dissociation constants for interaction with neuropilin-2-expressing cells were 0.29 for Sema E-AP and 0.09 nM for Sema IV-AP.
(§2) We estimated the binding affinity of the AP fusions of Sema III, Sema E and Sema IV to cells expressing neuropilin-1 or neuropilin-2 in equilibrium binding experiments. For these experiments, we used the a5 isoform of neuropilin-2. […] Those for Sema IV binding to neuropilin-1 and neuropilin-2 were 30 nM and 5 nM, respectively. […] Similar Kd values were obtained using the b5 isoform of neuropilin-2 and the degree of binding of different semaphorins to cells all isoforms tested appeared similar.

The target in assay [5] is T4, neuropilin-1 transiently expressed in COS-7 cells (Rattus norvegicus (Rat), UniProt Q9QWJ9 22-922).
T4 construct: also called npn-1; SR1
As to the kind of experiment: equilibrium binding of AP fusion to transfected COS cells, Hill fit. On the procedure:
as §1, §2

Assay [6] concerns the target T1, mouse neuropilin-2(a5), myc-tagged, …. Briefly: equilibrium binding of AP fusion to neuropilin-2-expressing COS cells (figure legend). On the procedure:
as §1, §2

B1: AP fusion with Drosophila D-Sema II (ligand, UniProt Q24323 26-724, looked up)
chain: DYENTWNFYYERPCCTGNDQGNNNYGKHGADHVREFNCGKLYYRTFHMNEDRDTLYVGAMDRVFRVNLQNISSSNCNRDVINLEPTRDDVVSCVSKGKSQIFDCKNHVRVIQSMDQGDRLYVCGTNAHNPKDYVIYANLTHLPRSEYVIGVGLGIAKCPYDPLDNSTAIYVENGNPGGLPGLYSGTNAEFTKADTVIFRTDLYNTSAKRLEYKFKRTLKYDSKWLDKPNFVGSFDIGEYVYFFFRETAVEYINCGKAVYSRIARVCKKDVGGKNLLAHNWATYLKARLNCSISGEFPFYFNEIQSVYQLPSDKSRFFATFTTSTNGLIGSAVCSFHINEIQAAFNGKFKEQSSSNSAWLPVLNSRVPEPRPGTCVNDTSNLPDTVLNFIRSHPLMDKAVNHEHNNPVYYKRDLVFTKLVVDKIRIDILNQEYIVYYVGTNLGRIYKIVQYYRNGESLSKLLDIFEVAPNEAIQVMEISQTRKSLYIGTDHRIKQIDLAMCNRRYDNCFRCVRDPYCGWDKEANTCRPYELDLLQDVANETSDICDSSVLKKKIVVTYGQSVHLGCFVKIPEVLKNEQVTWYHHSKDKGRYEIRYSPTKYIETTERGLVVVSVNEADGGRYDCHLGGSLLCSYNITVDAHRCTPPNKSNDYQKIYSDWCHEFEKYKTAMKSWEKKQAQCSTRQNFSSNQHPNEIFRKPNV
notes: also called Drosophila Sema II; not shown: alkaline phosphatase (AP) reporter
In the case of B1, the binding result in assay [1], in assay [2] and in assay [3] was “no binding” throughout.

B2: Sema E-AP fusion protein (mouse Sema E fused to alkaline phosphatase) (ligand, UniProt Q62181 21-751, looked up)
chain: GSSQPQARVYLTFDELRETKTSEYFSLSHQQLDYRILLMDEDQDRIYVGSKDHILSLNINNISQEPLSVFWPASTIKVEECKMAGKDPTHGCGNFVRVIQTFNRTHLYVCGSGAFSPVCTYLNRGRRSEDQVFMIDSKCESGKGRCSFNPNVNTVSVMINEELFSGMYIDFMGTDAAIFRSLTKRNAVRTDQHNSKWLSEPMFVDAHVIPDGTDPNDAKVYFFFKERLTDNNRSTKQIHSMIARICPNDTGGQRSLVNKWTTFLKARLVCSVTDEDGPETHFDELEDVFLLETDNPRTTLVYGIFTTSSSVFKGSAVCVYHLSDIQTVFNGPFAHKEGPNHQLISYQGRIPYPRPGTCPGGAFTPNMRTTKDFPDDVVTFIRNHPLMYNSIYPIHRRPLIVRIGTDYKYTKIAVDRVNAADGRYHVLFLGTDRGTVQKVVVLPTNSSASGELILEELEVFKNHVPITTMKISSKKQQLYVSSNEGVSQVSLHRCHIYGTACADCCLARDPYCAWDGHSCSRFYPTGKRRSRRQDVRHGNPLTQCRGFNLKAYRNAAEIVQYGVRNNSTFLECAPKSPQASIKWLLQKDKDRRKEVKLNERIIATSQGLLIRSVQDSDQGLYHCIATENSFKQTIAKINFKVLDSEMVAVVTDKWSPWTWAGSVRALPFHPKDILGAFSHSEMQLINQYCKDTRQQQQLGEEPQKMRGDYGKLKALINSRKSRNRRNQLPES
notes: written as in the name; Partially purified conditioned medium; not shown: secreted alkaline phosphatase of vector APtag-4
With B2, the equilibrium dissociation constant (Kd) in assay [4] stood at 18 nM; in assay [5], 5 nM; in assay [6], 0.29 nM.

B3: Sema IV-AP fusion protein (human Sema IV fused to alkaline phosphatase) (ligand, UniProt Q13275 19-785, looked up)
chain: SFPTQDHLPATPRVRLSFKELKATGTAHFFNFLLNTTDYRILLKDEDHDRMYVGSKDYVLSLDLHDINREPLIIHWAASPQRIEECVLSGKDVNGECGNFVRLIQPWNRTHLYVCGTGAYNPMCTYVNRGRRAQATPWTQTQAVRGRGSRATDGALRPMPTAPRQDYIFYLEPERLESGKGKCPYDPKLDTASALINEELYAGVYIDFMGTDAAIFRTLGKQTAMRTDQYNSRWLNDPSFIHAELIPDSAERNDDKLYFFFRERSAEAPQSPAVYARIGRICLNDDGGHCCLVNKWSTFLKARLVCSVPGEDGIETHFDELQDVFVQQTQDVRNPVIYAVFTSSGSVFRGSAVCVYSMADIRMVFNGPFAHKEGPNYQWMPFSGKMPYPRPGTCPGGTFTPSMKSTKDYPDEVINFMRSHPLMYQAVYPLQRRPLVVRTGAPYRLTTIAVDQVDAADGRYEVLFLGTDRGTVQKVIVLPKDDQELEELMLEEVEVFKDPAPVKTMTISSKRQQLYVASAVGVTHLSLHRCQAYGAACADCCLARDPYCAWDGQACSRYTASSKRRSRRQDVRHGNPIRQCRGFNSNANKNAVESVQYGVAGSAAFLECQPRSPQATVKWLFQRDPGDRRREIRAEDRFLRTEQGLLLRALQLSDRGLYSCTATENNFKHVVTRVQLHVLGRDAVHAALFPPLSMSAPPPPGAGPPTPPYQELAQLLAQPEVGLIHQYCQGYWRHVPPSPREAPGAPRSPEPQDQKKPRNRRHHPPDT
notes: written as in the name; Partially purified conditioned medium; also called Sema IV/Sema 3F; not shown: secreted alkaline phosphatase in pSecTag-A
Take B3: the Kd in assay [4] is 5 nM; in assay [5], 30 nM; in assay [6] it was 0.09 nM.
